Assay results taken from article doi:10.1101/318345v1.

Columns and labels:
purified protein [1] = substrate: O=C(O)C[C@H](C(=O)O)[C@@H](O)C(=O)O; experiment: purified protein; format: biochemical, Pseudomonas aeruginosa; settings: 200 μM NADP+, 5 mM MgCl2, pH 7.5, 37 °C
purified protein [2] = substrate: NC(=O)c1ccc[n+]([C@@H]2O[C@H](COP(=O)(O)OP(=O)(O)OC[C@H]3O[C@@H](n4cnc5c(N)ncnc54)[C@H](OP(=O)(O)O)[C@@H]3O)[C@@H](O)[C@H]2O)c1; experiment: purified protein; format: biochemical, Pseudomonas aeruginosa; settings: 200 μM isocitrate, 5 mM MgCl2, pH 7.5, 37 °C

B1: IDH (Pseudomonas aeruginosa PAO1) (protein)
chain: MSIRSKITYTFTDEAPALATYSLLPIVKAFAASAGIDVETSDISLAGRILANFADRLEADQRIEDDLARLAVLATSPDANIIKLPNISASVPQLKGAIAELQGLGYKVPDFPEDPQTDEEKEVRARYAKILGSAVNPVLREGNSDRRAPAAVKAYARKHPHSMGKWSMASRSHADYMRGGDFFSSEQSITMAKAGDVRIEFVGKDGKVEVKKQLSLQEGEVLDSMFMSCGKLRDFFEKTLQDCKETGVMWSLHVKATMMKISHPIVFGHAVSVYYKDVFDKWGQLFEELGVNPNNGISSVYDKIKSLPASQQEEILHDIHEVYSHRPEMAMVDSVKGITNLHIPSDVIVDASMPAMIRNSGQMWGKDGKQKDTKAVMPESTYARIYQEMINFCKTNGAFDPTTMGSVPNVGLMAQKAEEYGSHDKTFEMTADGTMRVVLADGSVLMQHKVETGDIWRACQTKDAPIRDWVKLAVTRARQSDTPAIFWLDPERAHDRELRKKVELYLKDHDLTGLDISIMGYNEAIRVSMERLIRGKDTISVTGNVLRDYLTDLFPIMELGTSAKMLSIVPLMAGGGMYETGAGGSAPKHVQQLVEENYLRWDSLGEFLALAVSLEETGIKTGNAKAKLLGKALDEATGKLLDNNKSPSRKVGDIDNRGSHFYLAMYWAQALAAQNEDAELKAHFAPLAKALTEQEATIVAELNAVQGKPAEIGGYYRSNPELTSKVMRPSATFNAAIDSLA
Work on B1 yielded a Km (purified protein [1]) of 17.7 µM and a kcat (purified protein [1]) of 183.7 s⁻¹.

B2: ICD (Pseudomonas aeruginosa PAO1) (protein)
chain: MGYQKIQVPATGDKITVNADMSLSVPKNPIIPFIEGDGIGVDISPVMIKVVDAAVEKAYKGERKIAWMEVYAGEKATQVYDQDTWLPQETLDAVRDYVVSIKGPLTTPVGGGIRSLNVALRQQLDLYVCQRPVRWFEGVPSPVKKPGDVDMVIFRENSEDIYAGVEWKAGSPEAEKVIKFLTEEMGVKKIRFTENCGIGIKPVSQEGTKRLVRKALQYAVDNDRSSVTLVHKGNIMKFTEGAFKDWGYEVARDEFGAELLDGGPWMQFKNPKTGKNVVVKDVIADAMLQQILLRPAEYDVIATLNLNGDYLSDALAAEVGGIGIAPGANLSDSVAMFEATHGTAPKYAGQDKVNPGSLILSAEMMLRHMGWTEAADLIIKGTNGAIAAKTVTYDFERLMDGATLLSCSEFGDAMIAKM
B2 was tested, and the Km (purified protein [2]) was 32.3 µM, the kcat (purified protein [2]) was 684.9 s⁻¹ and the Km (purified protein [1]) was 25.6 µM. It also gave a kcat (purified protein [1]) of 608.8 s⁻¹.
